Test results reported in patent US20240091375A1, “AN ANTIBODY FRAGMENT BASED ANTIMICROBIAL CONJUGATE SELECTIVELY TARGETING PSEUDOMONAS” (priority 2020, published 2024).

Experiments:
[1] = system: P. aeruginosa; test: Kill kinetics by ATP measurement (bacterial live dead assay); format: cell-based, Pseudomonas aeruginosa; conditions: ATP at different time points, FIG. 7; Histatin 5 and Seq. ID 21 compared with each other
Description: FIG. 7 is a representative graph showing the kill kinetics of Seq. ID 21, Seq. ID 6, on P. aeruginosa with Histatin 5, positive control—Meropenem, and negative controls—media and culture.
Kill kinetics was done by measuring the adenosine triphosphate (ATP) during different time points using the bacterial live dead assay. […] ID 21 was similar showing bactericidal activity was due to the released Histatin on contact with the Pseudomonas. A positive control used was antibacterial Meropenem drug to show the efficiency of killing. […] The VHH antibody Seq.

[2] = system: Pseudomonas aeruginosa; test: Microbiological agar-plate assay for bactericidal activity (MIC-99, MIC-50); format: cell-based; conditions: for MIC-50 (minimal inhibitory concentration for killing 50% microorganisms) / MIC-99 (minimal inhibitory concentration for killing 99% microorganisms): in vitro, agar-plate assay; for MIC-99 (minimal inhibitory concentration for killing 99% microorganisms): FIG. 5, Seq. ID6 value printed with 'anaerobic conditions'
Experimental: FIG. 5 is representative microbiological agar-plate assay to determine MIC-99 of purified Seq. ID 21, and Seq. ID 6;
Microbiology assays were done with the purified VHH with Seq. ID 6 and the antibody fragment based antimicrobial conjugate of Seq. ID 21 to see their bactericidal activity. As depicted in FIG. 5, the MIC-99 of the Seq. […] ID21 with a value less than 0.5 μM. The MIC-50 of Seq. ID 6 antibody fragment alone was less than 2.5 μM and that of Seq. ID 21 was less than 0.125 μM.

[3] = system: whole cell Pseudomonas spp.; test: Whole cell ELISA binding; conditions: FIG. 6a
Description: FIG. 6a is a representative graph depicting the binding affinity of Seq. ID21 and Seq. ID 6 to whole cell Pseudomonas spp. in an ELISA assay;
Whole cell ELISA using Pseudomonas spp. were used to determine the binding properties of the conjugate with Seq. ID 21, and VHH Seq. ID 6. […] ID 21. Both the molecules Seq. ID 21 and Seq.

[4] = system: P. aeruginosa; test: Turbidity test of P. aeruginosa culture; format: cell-based, Pseudomonas aeruginosa; conditions: treated versus untreated control, visual, FIG. 4b
Experimental: FIG. 4b is a representative image of turbidity test of P. aeruginosa culture in the presence (Treated) and the absence (Control) of purified Seq. ID 21;
FIG. 4b represents a turbidity test, wherein sample of the pathogen P. aeruginosa was either left untreated (Control) or was treated by addition of purified Seq. ID 21 (Treated) prodrug.

In the case of Histatin 5 [reference compound], the “Bactericidal activity in kill kinetics” value [1] is reported as “similar”.

B1: Seq. ID 6: camelid heavy chain antibody variable region fragment (VHH) specific to Pseudomonas aeruginosa antigen C4 decarboxylase transporter (protein, listed as Camelus dromedarius)
VHH: DVQLQESGGASVQPGGSLLISCEASGLASYSNYCIMWFRQPPGKEREGVAGINLRSGITYYAEAVRPRFTISADSVDGRFAISQDNARNTVYLQMNSLKPEDTAIYYCAAGNLCGGSWSGYRYWGQGTQVTVSS
For B1, the “MIC-50 (minimal inhibitory concentration for killing 50% microorganisms)” value [2] was “less than 2.5 μM”, the “MIC-99 (minimal inhibitory concentration for killing 99% microorganisms)” value [2] was 10 µM and the Biological activity [3] was “showed the desired biological activity”.

B2: Seq. ID 21: 187 amino acid conjugate: human Histatin 5, Elastase B cleavage sequence RGGGLA, Gly-Ser linker, VHH Seq. ID6 (conjugate)
chain: MGDSHAKRHHGYKRKFHEKHHSHRGYDVRGGGLAGGGGSGGGGSGGGGSHMDVQLQESGGASVQPGGSLLISCEASGLASYSNYCIMWFRQPPGKEREGVAGINLRSGITYYAEAVRPRFTISADSVDGRFAISQDNARNTVYLQMNSLKPEDTAIYYCAAGNLCGGSWSGYRYWGQGTQVTVSSLE
modifications: Antibody fragment based antimicrobial conjugate
notes: ID6
B2 was tested, and the “Reduction of MIC-99 relative to Seq. ID6 antibody fragment alone” value ([2]; conjugate versus VHH alone) was 20 fold, the “MIC-50 (minimal inhibitory concentration for killing 50% microorganisms)” value [2] was “less than 0.125 μM” and the “MIC-99 (minimal inhibitory concentration for killing 99% microorganisms)” value [2] was “less than 0.5 μM”. For the same molecule, the “Bactericidal activity in kill kinetics” value [1] was “similar”, the “Binding ability to whole cell Pseudomonas spp. after conversion of the antibody to conjugate” value ([3]; ELISA) was “no loss of binding ability” and the Biological activity [3] was “showed the desired biological activity”. For the same molecule, the “Turbidity of P. aeruginosa sample after treatment” value [4] was “visually reduced”.
